Source: the RNAGym collection of RNA variant scans (doi:10.7554/elife.90254)

B1: OR4K15 (parent)
chain: GUUAACGGUCAUAGGCCAUGGAAACUAGGAGCACCAUUUCGCUGCCAGUGAAGAAAUGAACAAAGAAAAUCUGGGCCAGGCAGGCAUCAAAAGAAAUAGUCUUGCGCUCAACCAGAAAGUCUGUAAUCAUUUUAAGGGUA

Variants of: B1
Assay: self-cleavage, relative activity (ratio to wild type); higher = more cleavage; in vitro, sequencing; the parent is a self-cleaving ribozyme

Variant | self-cleavage
U38C A82G | 0.57
A36U C61U | 2.41
U37A U130C | 0.61
U37C U130A | 0.91
U37C U130C | 0.97
A36G U103C | 0.43
U37C G75A | 0.08
A36G A116G | 0.76
U38C C101U | 0.35
A36G U43A | 1.27
A36G U43C | 1.91
U38C A55G | 0.93
U37C C81U | 0.49
U38A A54G | 0.28
U37C U132A | 1.34
U37C U132C | 1.54
U37C A68G | 1.25
A36U A55U | 0.98
U37C A67G | 0.68
U37A G137A | 2.24
U38C A116G | 1.09
U38C A116U | 0.09
U37C U87C | 0.99
U37C A114G | 0.34

Variant | self-cleavage
U38C G137U | 2.1
A36U U122A | 1.78
A36U U122C | 1.15
A36U U49A | 0.81
U38C U70C | 1.05
U38A G93A | 2.09
U37C A90U | 0.91
U37C A90G | 1.12
U37C A66U | 1.7
U37A A82G | 0.61
U38C C109U | 0.26
U37C G136A | 2.23
U38C C61U | 1.86
A36G A59U | 0.83
A36G A59G | 1.75
U38A A52G | 1.63
U37C G44A | 1.56
A36U A82G | 0.39
U37C G115U | 0.37
U37C G84A | 1.7
U37C U131C | 1.15
U37C A96C | 0.89
A36C G48A | 1.28
A36C U49A | 2

Variant | self-cleavage
U38A U57C | 0.69
A36G U120C | 1.28
A36G U120A | 2.61
A36G U120G | 1.29
U38C A94C | 1.41
U38A A60G | 1.32
U37C A55U | 1.57
C35U A126G | 0.58
A36U C105U | 0.17
A36C A59G | 1.68
U37C A95G | 2.37
U37G U87A | 1.38
U37A A118G | 1.4
U38A A110G | 0.16
U37C A69U | 1.6
U37C G58A | 1.14
U37C A126G | 1.31
U37C G48A | 1.59
U38A A135G | 2.17
U38C A91G | 1.24
U37C U122C | 1.25
U38C A134G | 1.74
U38A U103C | 0.64
U38A U103G | 0.04

Variant | self-cleavage
U37C U57C | 1.18
U37C C77U | 2.11
U37C A59G | 1.72
U38C A62U | 1.06
A36G A89G | 1.52
U38C A68U | 2.15
U37A U139C | 1.19
U37A A60G | 1.14
U37A A60U | 1.8
U38C U139C | 0.91
U38C U139A | 1.75
U38C U57A | 1.48
U38C U57C | 0.83
U37A A66G | 1.72
A36G A126U | 1.76
A36G A126G | 1.48
U38A U49C | 1.72
A36G A82C | 0.2
U38A A51G | 1.33
U37C A134G | 1.32
A36U A90U | 1.74
A36U U103A | 0.63
A36U U103C | 1.16
C35U U132C | 0.37

Variant | self-cleavage
A36G U102C | 1.88
U38C A51G | 1.33
U38C A51U | 1.24
A36U A117G | 1.52
A36U A117U | 0.88
A36U A63G | 1.98
A36G A95G | 2.04
A36U A56G | 1.46
A36U A56C | 1.49
A36U A56U | 1.12
C35U U131A | 1.01
A36G A60U | 0.82
U37A A114U | 0.06
A36U A62C | 0.87
A36G A98G | 1.54
A36G A98U | 2.12
U38C A140G | 2.16
A36C A66U | 1.68
U38C U120C | 1.06
U37C A98U | 1.84
U37C A98G | 0.8
C35U U57C | 0.58
A36U A60G | 1.11
A36U A60U | 2.08

Variant | self-cleavage
A36G G41A | 2.26
C35U A135G | 1.57
U37C G79U | 0.12
U37A A116G | 0.18
A36G A52G | 1.79
U37G A129G | 1.12
A36G A129G | 1.3
U37C G74U | 0.2
U37C A56G | 0.73
U37G A96G | 1.97
U37C A47G | 1.19
U37C G83A | 2.15
U37G A90G | 0.38
U38A A59G | 1.14
U37A U100C | 2.33
U38G U127C | 1.37
U37A A69U | 1.92
A36C U127A | 2.57
U38C U124A | 0.81
U38C A60G | 1.44
A36G U133A | 2.28
U38A A90G | 1.18
U38C A114U | 0.15
A36U U108C | 0.02

Variant | self-cleavage
A36U U108A | 0
U37C U127A | 2.07
U37C U127C | 1.08
U37C C42G | 1.69
U37G A118G | 0.99
U37C G106A | 0.01
U37A A98G | 1.07
A36G A63C | 2.09
A36G A63G | 1.32
A36G A63U | 1.91
U37A A89G | 0.43
U37C A89G | 1.52
U37C A89C | 1.31
U37C A89U | 2.23
U38G A95G | 2.17
U37C U70A | 1.1
U37A A91G | 0.78
U37C U39C | 1.72
A36U A129G | 1.12
A36G A117G | 2.27
A36G A117U | 1.29
U39A A47G | 0.44
U38C | 1.45
